Assay results: US20240034813A1 (Janssen / Centocor, published 2024)

Experiments:
[1] = target: T1, recombinant human EGFR/ErbB1/HER1 with C-terminal His tag, Cy5-labeled (human, UniProt P00533 25-645, Cy5 label (reacted with Cy5 Mono NHS Ester; sites not stated)); assay: competitive TR-FRET (Eu-amivantamab/Cy5-EGFR), EC50 ratio vs Reference Material; Ex. 2 Formulation 1 (10 mM histidine), 3 months at 25 C
T1 construct: Commercial protein; also called Cy5-EGFR; Cy5-labeled EGFR antigen; not shown: C-terminal His tag
Source text: (§1) In this procedure, varying concentrations of unlabeled bispecific EGFR-cMet antibody sample compete with donor fluorophore (Europium (Eu) chelate) labeled bispecific EGFR-cMet antibody for binding to an acceptor fluorophore (Cy5)-labeled EGFR antigen. Excitation of the donor fluorophore results in a transfer of energy to the bound acceptor fluorophore (FRET process). The resultant FRET is detected by emission of light at 665 nm using a microplate reader capable of measuring time-resolved fluorescence. Sample dose response curves are compared to the RM.
(§2) EGFR Binding Materials and Methods. Certified commercial EGFR, a recombinant human EGFR/ErbB1/HER1 with C-terminal His tag is reacted with certified commercial Cy5 Mono NHS Ester to produce Cy5-labeled EGFR. Validated bispecific EGFR-cMet antibody is reacted with certified commercial Europium (Eu) chelate to produce Eu-labeled bispecific EGFR-cMet antibody. […] Fluorescence is then measured by spectrophotometry at 665 nm, plotted against antibody concentration and analyzed by a four-parameter logistic model. The antibody concentration required to obtain half of the maximum fluorescence response (EC50) is determined for RM, assay control and samples. The potencies of assay control and samples are calculated based on the ratio of the sample (or control) and RM EC50 values and reported as a percentage activity relative to the RM.

[2] = target: T1, recombinant human EGFR/ErbB1/HER1 with …; assay: competitive TR-FRET (Eu-amivantamab/Cy5-EGFR), EC50 ratio vs Reference Material; Ex. 3 acetate formulation, 6 months at 25 C then 5 freeze/thaw cycles
Source text: as §1, §2

[3] = target: T2, recombinant cMet/HGFR with c-terminal His-tag, Cy5-labeled (UniProt P08581 25-932, limits assumed, Cy5 label (reacted with Cy5 Mono NHS Ester; sites not stated)); assay: competitive TR-FRET (Eu-amivantamab/Cy5-c-MET), EC50 ratio vs Reference Material; Ex. 2 Formulation 2 (50 mM histidine), 1 month at 40 C
T2 construct: Commercial protein; also called Cy5-c-MET; Cy5-labeled c-MET antigen; not shown: C-terminal His-tag
Source text: as §1, with “(Cy5)-labeled c-MET” for “(Cy5)-labeled EGFR”, “the Reference Material (RM).” for “the RM.”
as §2, with “c-MET Binding” for “EGFR Binding”, “commercial cMet,” for “commercial EGFR,”, “recombinant cMet/HGFR” for “recombinant human EGFR/ErbB1/HER1”, “with c-terminal His-tag” for “with C-terminal His tag”, “Cy5-labeled c-MET.” for “Cy5-labeled EGFR.”, “produce Eu labeled” for “produce Eu-labeled”

[4] = target: T2, recombinant cMet/HGFR with c-terminal …; assay: competitive TR-FRET (Eu-amivantamab/Cy5-c-MET), EC50 ratio vs Reference Material; Ex. 12 drug product with rHuPH20, 1 month at 40 C
Source text: as §1, with “(Cy5)-labeled c-MET” for “(Cy5)-labeled EGFR”, “the Reference Material (RM).” for “the RM.”
as §2, with “c-MET Binding” for “EGFR Binding”, “commercial cMet,” for “commercial EGFR,”, “recombinant cMet/HGFR” for “recombinant human EGFR/ErbB1/HER1”, “with c-terminal His-tag” for “with C-terminal His tag”, “Cy5-labeled c-MET.” for “Cy5-labeled EGFR.”, “produce Eu labeled” for “produce Eu-labeled”

[5] = target: T2, recombinant cMet/HGFR with c-terminal …; assay: competitive TR-FRET (Eu-amivantamab/Cy5-c-MET), EC50 ratio vs Reference Material; Ex. 2 Formulation 3 (acetate), 3 months at 5 C
Source text: as §1, with “(Cy5)-labeled c-MET” for “(Cy5)-labeled EGFR”, “the Reference Material (RM).” for “the RM.”
as §2, with “c-MET Binding” for “EGFR Binding”, “commercial cMet,” for “commercial EGFR,”, “recombinant cMet/HGFR” for “recombinant human EGFR/ErbB1/HER1”, “with c-terminal His-tag” for “with C-terminal His tag”, “Cy5-labeled c-MET.” for “Cy5-labeled EGFR.”, “produce Eu labeled” for “produce Eu-labeled”

[6] = target: T1, recombinant human EGFR/ErbB1/HER1 with …; assay: competitive TR-FRET (Eu-amivantamab/Cy5-EGFR), EC50 ratio vs Reference Material; Ex. 12 drug product with rHuPH20, 1 month at 40 C
Source text: as §1, §2

[7] = target: T2, recombinant cMet/HGFR with c-terminal …; assay: competitive TR-FRET (Eu-amivantamab/Cy5-c-MET), EC50 ratio vs Reference Material; Ex. 2 Formulation 1 (10 mM histidine), 3 months at 5 C
Source text: as §1, with “(Cy5)-labeled c-MET” for “(Cy5)-labeled EGFR”, “the Reference Material (RM).” for “the RM.”
as §2, with “c-MET Binding” for “EGFR Binding”, “commercial cMet,” for “commercial EGFR,”, “recombinant cMet/HGFR” for “recombinant human EGFR/ErbB1/HER1”, “with c-terminal His-tag” for “with C-terminal His tag”, “Cy5-labeled c-MET.” for “Cy5-labeled EGFR.”, “produce Eu labeled” for “produce Eu-labeled”

[8] = target: T1, recombinant human EGFR/ErbB1/HER1 with …; assay: competitive TR-FRET (Eu-amivantamab/Cy5-EGFR), EC50 ratio vs Reference Material; Ex. 2 Formulation 2 (50 mM histidine), 3 months at 5 C
Source text: as §1, §2

B1: amivantamab (bispecific antibody, human IgG1, kappa)
heavy 1: not shown
light 1: not shown
heavy 2: not shown
light 2: DIQMTQSPSSVSASVGDRVTITCRASQGISNWLAWFQHKPGKAPKLLIYAASSLLSGVPSRFSGSGSGTDFTLTISSLQPEDFATYYCQQANSFPITFGQGTRLEIKRTVAAPSVFIFPPSDEQLKSGTASVVCLLNNFYPREAKVQWKVDNALQSGNSQESVTEQDSKDSTYSLSSTLTLSKADYEKHKVYACEVTHQGLSSPVTKSFNRGEC
notes: The samples tested were high concentration (160 mg/mL) formulations, fresh or stored or stressed; also called JNJ-61186372; bispecific EGFR-cMet antibody
For B1, the “EGFR Binding % activity relative to RM” value [1] was 100%, the “EGFR Binding % activity relative to RM” value [2] was 95% and the “cMET Binding % activity relative to RM” value [3] was 90%. For the same binder, the “cMET Binding activity relative to Reference Material (%)” value [4] was 81%, the “cMET Binding % activity relative to RM” value [5] was 109% and the “EGFR Binding activity relative to Reference Material (%)” value [6] was 41%. The “cMET Binding % activity relative to RM” value [7] was 100% and the “EGFR Binding % activity relative to RM” value [8] was 96%.
